Assay [1] has as its target polyubiquitin (UniProt P0CG48). Description: ELISA; 0.50 ug polyubiquitin dried per well (Nunc MaxiSorp), blocked with 1% BSA; angiocidin or mutants at various concentrations in TBST pH 7.4, 1.5 h, room temperature; detected with biotinylated rabbit antiangiocidin IgG and streptavidin-HRP; fitted to a rectangular hyperbola. In general terms: In an ELISA, binding on a coated surface is turned into a signal by an enzyme label.

Assay [2] addresses polyubiquitin (UniProt P0CG48). The assay is described as above. This is another data set of the same source.
For assay [3], the target named is polyubiquitin (UniProt P0CG48).

Where two headings read alike, the source gives them in different places.

Our source for the Kd and endothelial cell apoptotic activity: viability of HUVE cells plated overnight on wells coated with 1 ug protein, Alamar blue assay (fold lower than angiocidin) values is article PMC2361611.

What is called Kd is a measure of binding affinity in units of concentration. A higher Kd goes with lower affinity.

The substance “angiocidin (his-tagged recombinant, full length) (natural protein)” had a dissociation constant Kd with polyubiquitin [1] of 0.041 nM.
Consider “angiocidin mutant M-2 (L216ALAL220 substituted with alanines) (natural protein)”, for which the dissociation constant Kd worked out at 15 nM with polyubiquitin [1] and 1.52 nM with polyubiquitin [2]. The substance further showed an endothelial cell apoptotic activity: viability of HUVE cells plated overnight on wells coated with 1 ug protein, Alamar blue assay (fold lower than angiocidin) with polyubiquitin [3] of 2.
